In US20180155451A1 (published 2018):

B1: GpH7-B3 variant S298_07I/GpL16-k0 (antibody, human IgG1, kappa)
heavy: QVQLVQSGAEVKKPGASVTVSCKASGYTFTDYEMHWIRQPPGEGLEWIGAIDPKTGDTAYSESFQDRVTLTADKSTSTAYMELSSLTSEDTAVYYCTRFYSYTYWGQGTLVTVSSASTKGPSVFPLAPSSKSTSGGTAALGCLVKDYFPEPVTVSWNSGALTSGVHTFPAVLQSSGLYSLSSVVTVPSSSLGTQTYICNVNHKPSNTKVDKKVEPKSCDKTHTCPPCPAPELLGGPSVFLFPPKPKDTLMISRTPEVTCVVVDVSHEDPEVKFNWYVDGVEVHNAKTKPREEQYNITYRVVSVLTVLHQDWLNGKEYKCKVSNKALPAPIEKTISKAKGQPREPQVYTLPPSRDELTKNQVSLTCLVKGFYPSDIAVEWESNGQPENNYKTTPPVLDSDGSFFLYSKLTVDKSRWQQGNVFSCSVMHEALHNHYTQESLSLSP
light: DIVMTQSPLSLPVTPGEPASISCQASESLVHSNRNTYLHWYLQKPGQSPQLLIYKVSNRFSGVPDRFSGSGSGTDFTLKISRVEAEDVGVYYCSQNTHVPPTFGQGTKVEIERTVAAPSVFIFPPSDEQLKSGTASVVCLLNNFYPREAKVQWKVDNALQSGNSQESVTEQDSKDSTYSLSSTLTLSKADYEKHKVYACEVTHQGLSSPVTKSFNRGEC
notes: mutation in both H chains; also called Ho Ab S298_07I; S298I
B2: GpH7-A5/GpH7-B3 variant S298_11K/GpL16-k0 (antibody, human IgG1, kappa)
heavy 1: not shown
heavy 2: not shown
light: B1 light
notes: mutation in one H chain only; also called He Ab S298_11K; S298K
B3: GpH7-A5/GpH7-B3 variant S267_09D/GpL16-k0 (antibody, human IgG1, kappa)
heavy 1: not shown
heavy 2: not shown
light: B1 light
notes: mutation in one H chain only; also called He Ab S267_09D; S267D
B4: GpH7-B3 variant T335_05P/GpL16-k0 (antibody, human IgG1, kappa)
heavy: not shown
light: B1 light
notes: mutation in both H chains; also called Ho Ab T335_05P; T335P
B5: GpH7-B3 variant S337_19Q/GpL16-k0 (antibody, human IgG1, kappa)
heavy: not shown
light: B1 light
notes: mutation in both H chains; also called Ho Ab S337_19Q; S337Q
B6: GpH7-A5/GpH7-B3 variant S239_09D/GpL16-k0 (antibody, human IgG1, kappa)
heavy 1: not shown
heavy 2: not shown
light: B1 light
notes: mutation in one H chain only; also called He Ab S239_09D; S239D
B7: GpH7-B3 variant T335_08L/GpL16-k0 (antibody, human IgG1, kappa)
heavy: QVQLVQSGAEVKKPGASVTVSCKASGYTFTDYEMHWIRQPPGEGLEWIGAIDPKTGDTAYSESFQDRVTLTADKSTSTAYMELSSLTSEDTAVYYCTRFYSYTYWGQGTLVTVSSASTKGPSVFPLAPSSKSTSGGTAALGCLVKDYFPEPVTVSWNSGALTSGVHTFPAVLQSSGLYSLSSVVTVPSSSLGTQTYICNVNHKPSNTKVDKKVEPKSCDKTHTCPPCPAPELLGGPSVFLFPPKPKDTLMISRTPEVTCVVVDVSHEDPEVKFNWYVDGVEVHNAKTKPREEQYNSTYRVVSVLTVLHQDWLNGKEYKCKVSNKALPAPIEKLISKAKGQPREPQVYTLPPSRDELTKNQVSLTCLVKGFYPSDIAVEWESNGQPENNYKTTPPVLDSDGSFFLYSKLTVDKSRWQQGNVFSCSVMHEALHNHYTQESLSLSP
light: B1 light
notes: mutation in both H chains; also called Ho Ab T335_08L; T335L
B8: GpH7-A5/GpH7-B3 variant S298_01G/GpL16-k0 (antibody, human IgG1, kappa)
heavy 1: not shown
heavy 2: not shown
light: B1 light
notes: mutation in one H chain only; also called He Ab S298_01G; S298G
B9: GpH7-B3 variant T335_06M/GpL16-k0 (antibody, human IgG1, kappa)
heavy: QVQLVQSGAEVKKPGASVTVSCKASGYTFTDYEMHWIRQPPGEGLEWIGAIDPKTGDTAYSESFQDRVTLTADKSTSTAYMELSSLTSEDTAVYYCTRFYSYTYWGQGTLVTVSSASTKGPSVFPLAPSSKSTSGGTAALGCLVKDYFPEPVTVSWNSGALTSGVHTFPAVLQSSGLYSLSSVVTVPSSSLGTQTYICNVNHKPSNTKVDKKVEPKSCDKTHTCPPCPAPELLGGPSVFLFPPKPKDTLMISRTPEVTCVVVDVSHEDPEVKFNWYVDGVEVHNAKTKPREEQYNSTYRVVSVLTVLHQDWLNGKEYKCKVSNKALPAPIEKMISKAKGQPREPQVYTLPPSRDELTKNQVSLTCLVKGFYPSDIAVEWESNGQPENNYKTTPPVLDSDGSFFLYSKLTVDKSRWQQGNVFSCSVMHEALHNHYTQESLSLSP
light: B1 light
notes: mutation in both H chains; also called Ho Ab T335_06M; T335M
B10: GpH7-A5/GpH7-B3 variant S239_14T/GpL16-k0 (antibody, human IgG1, kappa)
heavy 1: not shown
heavy 2: not shown
light: B1 light
notes: mutation in one H chain only; also called He Ab S239_14T; S239T
B11: GpH7-B3 variant S337_10E/GpL16-k0 (antibody, human IgG1, kappa)
heavy: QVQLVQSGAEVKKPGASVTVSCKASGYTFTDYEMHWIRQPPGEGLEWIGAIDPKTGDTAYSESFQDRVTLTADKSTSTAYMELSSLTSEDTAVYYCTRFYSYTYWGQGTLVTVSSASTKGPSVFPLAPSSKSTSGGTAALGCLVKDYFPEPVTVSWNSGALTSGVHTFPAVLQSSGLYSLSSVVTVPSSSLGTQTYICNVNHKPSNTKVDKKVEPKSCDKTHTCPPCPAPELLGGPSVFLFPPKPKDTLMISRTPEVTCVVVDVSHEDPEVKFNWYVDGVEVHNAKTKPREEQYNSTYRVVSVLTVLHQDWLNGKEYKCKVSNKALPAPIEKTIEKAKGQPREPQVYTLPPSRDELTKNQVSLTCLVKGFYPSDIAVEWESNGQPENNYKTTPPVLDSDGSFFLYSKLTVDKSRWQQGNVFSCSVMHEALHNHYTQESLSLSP
light: B1 light
notes: mutation in both H chains; also called Ho Ab S337_10E; S337E
B12: GpH7-B3 variant S337_04F/GpL16-k0 (antibody, human IgG1, kappa)
heavy: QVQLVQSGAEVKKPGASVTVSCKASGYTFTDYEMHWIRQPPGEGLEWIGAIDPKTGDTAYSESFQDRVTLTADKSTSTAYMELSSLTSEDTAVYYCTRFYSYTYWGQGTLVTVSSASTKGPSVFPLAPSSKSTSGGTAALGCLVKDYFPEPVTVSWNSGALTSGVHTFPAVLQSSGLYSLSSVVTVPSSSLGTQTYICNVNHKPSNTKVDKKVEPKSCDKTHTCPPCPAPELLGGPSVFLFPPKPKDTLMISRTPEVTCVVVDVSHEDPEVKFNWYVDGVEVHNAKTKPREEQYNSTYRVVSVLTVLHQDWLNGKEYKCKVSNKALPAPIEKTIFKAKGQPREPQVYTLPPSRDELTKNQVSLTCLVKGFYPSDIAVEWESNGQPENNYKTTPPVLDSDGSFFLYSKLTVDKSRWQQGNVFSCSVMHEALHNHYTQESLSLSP
light: B1 light
notes: mutation in both H chains; also called Ho Ab S337_04F; S337F
B13: GpH7-B3 variant S337_08L/GpL16-k0 (antibody, human IgG1, kappa)
heavy: not shown
light: B1 light
notes: mutation in both H chains; also called Ho Ab S337_08L; S337L
B14: GpH7-B3 variant S298_16H/GpL16-k0 (antibody, human IgG1, kappa)
heavy: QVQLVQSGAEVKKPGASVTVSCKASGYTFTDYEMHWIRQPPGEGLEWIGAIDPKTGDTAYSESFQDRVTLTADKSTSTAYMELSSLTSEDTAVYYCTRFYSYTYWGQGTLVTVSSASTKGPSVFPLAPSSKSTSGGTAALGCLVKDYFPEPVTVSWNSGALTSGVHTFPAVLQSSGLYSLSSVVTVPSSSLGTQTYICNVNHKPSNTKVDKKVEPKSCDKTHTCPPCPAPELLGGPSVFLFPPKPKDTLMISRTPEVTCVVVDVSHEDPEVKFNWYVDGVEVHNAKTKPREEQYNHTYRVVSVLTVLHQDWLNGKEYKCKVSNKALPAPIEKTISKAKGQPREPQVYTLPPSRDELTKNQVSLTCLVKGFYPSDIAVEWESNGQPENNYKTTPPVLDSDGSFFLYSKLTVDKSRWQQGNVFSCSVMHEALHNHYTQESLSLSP
light: B1 light
notes: mutation in both H chains; also called Ho Ab S298_16H; S298H
B15: GpH7-A5/GpH7-B3 variant S239_19Q/GpL16-k0 (antibody, human IgG1, kappa)
heavy 1: not shown
heavy 2: not shown
light: B1 light
notes: mutation in one H chain only; also called He Ab S239_19Q; S239Q
B16: GpH7-B3 variant T335_04F/GpL16-k0 (antibody, human IgG1, kappa)
heavy: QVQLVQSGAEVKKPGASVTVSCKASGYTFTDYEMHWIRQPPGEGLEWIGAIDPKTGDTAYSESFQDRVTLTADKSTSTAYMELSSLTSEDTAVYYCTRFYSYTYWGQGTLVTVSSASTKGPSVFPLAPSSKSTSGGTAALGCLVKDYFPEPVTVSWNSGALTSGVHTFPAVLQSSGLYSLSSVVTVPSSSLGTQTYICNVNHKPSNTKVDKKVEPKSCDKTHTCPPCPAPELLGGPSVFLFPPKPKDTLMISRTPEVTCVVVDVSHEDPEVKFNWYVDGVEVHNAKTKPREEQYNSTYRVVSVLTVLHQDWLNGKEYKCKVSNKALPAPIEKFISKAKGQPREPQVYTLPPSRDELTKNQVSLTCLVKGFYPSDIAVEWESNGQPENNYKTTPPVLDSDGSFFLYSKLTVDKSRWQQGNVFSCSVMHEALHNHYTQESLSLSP
light: B1 light
notes: mutation in both H chains; also called Ho Ab T335_04F; T335F
B17: GpH7-B3 variant S324_03V/GpL16-k0 (antibody, human IgG1, kappa)
heavy: not shown
light: B1 light
notes: mutation in both H chains; also called Ho Ab S324_03V; S324V
B18: GpH7-B3 variant S324_20W/GpL16-k0 (antibody, human IgG1, kappa)
heavy: not shown
light: B1 light
notes: mutation in both H chains; also called Ho Ab S324_20W; S324W
B19: GpH7-B3 variant S298_12R/GpL16-k0 (antibody, human IgG1, kappa)
heavy: not shown
light: B1 light
notes: mutation in both H chains; also called Ho Ab S298_12R; S298R
B20: GpH7-A5/GpH7-B3 variant S298_03V/GpL16-k0 (antibody, human IgG1, kappa)
heavy 1: not shown
heavy 2: not shown
light: B1 light
notes: mutation in one H chain only; also called He Ab S298_03V; S298V
B21: GpH7-A5/GpH7-B3 variant S239_18N/GpL16-k0 (antibody, human IgG1, kappa)
heavy 1: not shown
heavy 2: not shown
light: B1 light
notes: mutation in one H chain only; also called He Ab S239_18N; S239N
B22: GpH7-A5/GpH7-B3 variant S267_02A/GpL16-k0 (antibody, human IgG1, kappa)
heavy 1: not shown
heavy 2: not shown
light: B1 light
notes: mutation in one H chain only; also called He Ab S267_02A; S267A
B23: GpH7-B3 variant S298_18N/GpL16-k0 (antibody, human IgG1, kappa)
heavy: not shown
light: B1 light
notes: mutation in both H chains; also called Ho Ab S298_18N; S298N
B24: GpH7-B3 variant S298_19Q/GpL16-k0 (antibody, human IgG1, kappa)
heavy: not shown
light: B1 light
notes: mutation in both H chains; also called Ho Ab S298_19Q; S298Q
B25: GpH7-A5/GpH7-B3 variant S267_16H/GpL16-k0 (antibody, human IgG1, kappa)
heavy 1: not shown
heavy 2: not shown
light: B1 light
notes: mutation in one H chain only; also called He Ab S267_16H; S267H
B26: GpH7-B3 variant S324_11K/GpL16-k0 (antibody, human IgG1, kappa)
heavy: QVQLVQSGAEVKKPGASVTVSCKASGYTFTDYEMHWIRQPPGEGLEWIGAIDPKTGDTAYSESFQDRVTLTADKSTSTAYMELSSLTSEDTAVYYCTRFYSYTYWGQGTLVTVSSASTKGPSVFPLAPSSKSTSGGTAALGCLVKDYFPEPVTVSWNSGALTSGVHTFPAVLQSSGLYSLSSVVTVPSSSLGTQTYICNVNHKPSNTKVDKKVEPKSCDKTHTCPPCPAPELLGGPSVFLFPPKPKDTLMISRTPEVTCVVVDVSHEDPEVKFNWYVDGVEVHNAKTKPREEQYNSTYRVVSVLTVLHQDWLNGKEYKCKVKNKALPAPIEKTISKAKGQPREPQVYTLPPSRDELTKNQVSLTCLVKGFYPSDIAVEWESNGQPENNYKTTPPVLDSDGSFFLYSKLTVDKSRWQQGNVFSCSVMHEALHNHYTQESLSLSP
light: B1 light
notes: mutation in both H chains; also called Ho Ab S324_11K; S324K
B27: GpH7-A5/GpH7-B3 variant S267_01G/GpL16-k0 (antibody, human IgG1, kappa)
heavy 1: not shown
heavy 2: not shown
light: B1 light
notes: mutation in one H chain only; also called He Ab S267_01G; S267G
B28: GpH7-B3 variant S337_03V/GpL16-k0 (antibody, human IgG1, kappa)
heavy: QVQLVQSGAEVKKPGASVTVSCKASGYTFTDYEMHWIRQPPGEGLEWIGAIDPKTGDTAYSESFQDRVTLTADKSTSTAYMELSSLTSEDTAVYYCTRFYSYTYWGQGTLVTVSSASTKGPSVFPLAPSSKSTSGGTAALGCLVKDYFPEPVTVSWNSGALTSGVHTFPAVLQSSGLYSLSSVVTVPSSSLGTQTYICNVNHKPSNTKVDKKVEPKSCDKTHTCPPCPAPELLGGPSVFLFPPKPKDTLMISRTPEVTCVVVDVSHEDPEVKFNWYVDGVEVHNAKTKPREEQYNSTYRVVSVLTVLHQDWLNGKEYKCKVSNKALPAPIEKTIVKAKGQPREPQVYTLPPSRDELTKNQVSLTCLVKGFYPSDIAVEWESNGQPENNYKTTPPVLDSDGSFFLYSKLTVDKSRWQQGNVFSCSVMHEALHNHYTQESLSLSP
light: B1 light
notes: mutation in both H chains; also called Ho Ab S337_03V; S337V
B29: GpH7-B3 variant S337_01G/GpL16-k0 (antibody, human IgG1, kappa)
heavy: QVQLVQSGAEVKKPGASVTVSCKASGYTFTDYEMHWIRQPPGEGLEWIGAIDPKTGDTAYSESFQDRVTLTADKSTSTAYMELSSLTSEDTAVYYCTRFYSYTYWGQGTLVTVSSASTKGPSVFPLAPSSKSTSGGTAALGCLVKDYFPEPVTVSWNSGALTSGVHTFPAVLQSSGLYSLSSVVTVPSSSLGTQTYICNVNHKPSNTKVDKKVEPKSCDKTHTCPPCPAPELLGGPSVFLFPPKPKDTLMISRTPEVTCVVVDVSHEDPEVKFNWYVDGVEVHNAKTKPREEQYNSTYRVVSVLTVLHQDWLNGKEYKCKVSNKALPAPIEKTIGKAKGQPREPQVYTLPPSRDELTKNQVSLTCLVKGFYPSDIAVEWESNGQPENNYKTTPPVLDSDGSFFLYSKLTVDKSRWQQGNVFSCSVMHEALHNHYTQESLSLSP
light: B1 light
notes: mutation in both H chains; also called Ho Ab S337_01G; S337G
B30: GpH7-B3 variant S337_20W/GpL16-k0 (antibody, human IgG1, kappa)
heavy: not shown
light: B1 light
notes: mutation in both H chains; also called Ho Ab S337_20W; S337W

Assays:
[1] = target: T1, FcγRIa extracellular domain with C-terminal His tag (human, UniProt P12314 16-292); experiment: SPR Biacore, relative FcγRIa binding vs GpH7-B3/GpL16-k0
T1 construct: extracellular domain; also called FcgRI; CD64; not shown: His tag at the C terminus

[2] = target: T1, FcγRIa extracellular domain with …; experiment: SPR Biacore, relative FcγRIa binding vs GpH7-A5/GpH7-B3/GpL16-k0

T1 sequence (P12314 16-292): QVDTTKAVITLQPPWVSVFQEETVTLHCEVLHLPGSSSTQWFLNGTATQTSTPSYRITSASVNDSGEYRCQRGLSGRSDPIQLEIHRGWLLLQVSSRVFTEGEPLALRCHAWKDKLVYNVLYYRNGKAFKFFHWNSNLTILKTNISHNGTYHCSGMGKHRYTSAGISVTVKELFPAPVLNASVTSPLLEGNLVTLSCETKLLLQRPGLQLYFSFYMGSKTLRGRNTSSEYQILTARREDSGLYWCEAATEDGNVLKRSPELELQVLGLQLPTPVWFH

Binder | Ho/Con_1a [1] | He/Con_1a [2]
B1 | 103 % of HoCon Ab (=100) | 
B2 |  | 109 % of HeCon Ab (=100)
B3 |  | 110 % of HeCon Ab (=100)
B4 | 106 % of HoCon Ab (=100) | 
B5 | 105 % of HoCon Ab (=100) | 
B6 |  | 101 % of HeCon Ab (=100)
B7 | 105 % of HoCon Ab (=100) | 
B8 |  | 104 % of HeCon Ab (=100)
B9 | 106 % of HoCon Ab (=100) | 
B10 |  | 101 % of HeCon Ab (=100)
B11 | 104 % of HoCon Ab (=100) | 
B12 | 105 % of HoCon Ab (=100) | 
B13 | 105 % of HoCon Ab (=100) | 
B14 | 107 % of HoCon Ab (=100) | 
B15 |  | 101 % of HeCon Ab (=100)
B16 | 105 % of HoCon Ab (=100) | 
B17 | 103 % of HoCon Ab (=100) | 
B18 | 112 % of HoCon Ab (=100) | 
B19 | 94.5 % of HoCon Ab (=100) | 
B20 |  | 110 % of HeCon Ab (=100)
B21 |  | 101 % of HeCon Ab (=100)
B22 |  | 109 % of HeCon Ab (=100)
B23 | 104 % of HoCon Ab (=100) | 
B24 | 105 % of HoCon Ab (=100) | 
B25 |  | 100 % of HeCon Ab (=100)
B26 | 100 % of HoCon Ab (=100) | 
B27 |  | 103 % of HeCon Ab (=100)
B28 | 105 % of HoCon Ab (=100) | 
B29 | 102 % of HoCon Ab (=100) | 
B30 | 104 % of HoCon Ab (=100) | 
